Experimental data as given in patent US20250084126A1, “PEPTIDE AND COMPOSITION” (OSAKA UNIVERSITY, priority 2021, published 2025).
No end group written: not given here.

Key:
hDPSCs [1] = test: LDH-assay cytotoxicity to hDPSCs; type: cell-based, human; details: for cytotoxicity, overall conclusion: 0.1-100 μg/ml, versus PBS; for cytotoxicity compared to the control (LDH-assay): 2 days, control PBS, p<0.05
Experimental: The hDPSCs were seeded in α-MEM medium containing 10% FBS added with the four peptides at concentrations of 0.1, 1, 10, and 100 μg/ml in a 96 well plate at 5,000 cells/well and cultured at 37° C. for 2 days in a 5% CO2 gas phase. For toxicity test, culture supernatant was collected and LDH-assay was performed using LDH Cytotoxicity Detection Kit (Takara Bio Inc., Shiga). A reagent was added to the collected culture supernatant, and the culture supernatant was placed at 37° C. for 30 minutes in the 5% CO2 gas phase. The absorbance at 405 nm was then measured using the microplate reader (ARVO MX). To further evaluate the proliferative capacity, WST-1-assay was performed using Premix WST-1 Cell Proliferation Assay System (Takara Bio Inc.) after the cells had been continuously cultured for 1 day. The culture was added with a WST-1 reagent and allowed to stand for 30 minutes at 37° C. in the 5% CO2 gas phase. After shaking for 1 minute at room temperature, the absorbance at 450 nm was measured using the microplate reader (ARVO MX). A sample in which the PBS was added to the culture was used as a control, and the number of samples was 6 for each condition.
(§1) The statistical significance test in the above experiment was performed using the One-way ANOVA and Tukey's test for a cytotoxicity test and Kruskal-Wallis-test for a cell proliferation test and a comparison of the amount of formed tertiary dentin in the direct pulp capping experiment, with a critical value of 5%.

[2] = test system: exposed pulp of rat molars; test: Direct pulp capping experiment using Protein S100 family-derived peptide; type: in vivo; details: 4 weeks; for structure of the tertiary dentin compared to the samples treated with the peptides (HE staining): 1 μg/ml; for number of samples with tertiary dentin formation that completely sealed the exposed pulp region: micro-CT scoring, n=8 per condition, peptides 100 μg/ml, recombinant proteins 1 μg/ml, 20 μl in gelatin sponge; for closure of the surface of the exposed pulp (HE staining): representative samples with complete tertiary dentin formation
Experimental: To evaluate the effect of the Protein S100 family-derived peptide on ability of forming of the tertiary dentin, a direct pulp capping experiment was performed on rat molars using a gelatin sponge (Spongel®) soaked with 20 μl of each PBS solution containing the No. 28, No. 47, No. 32, or No. 51 peptide at a concentration of 100 μg/ml using the same way as described in the section 1) of “Materials and Methods” of the section 1 of the section I above. PBS solution containing the S100-A8 (PROSPEC, Israel), the PBS solution containing the S100-A9 (PROSPEC), wherein the S100-A8 and S100-A9 are a recombinant of the protein from which the peptide was derived, at a concentration of 1 μg/ml, and the PBS solution alone were used as controls. After 4 weeks from the capping treatment, the micro-CT imaging and image analysis were performed on the tertiary dentin formed just below the exposed pulp. An evaluation method, in which the amount of formed tertiary dentin observed in histopathological images was scored, in the direct pulp capping experiment conducted by Okamoto et al. in the past, was applied to the micro-CT images in this study, and the evaluation was performed by scoring the formed tertiary dentin [Clinical Oral Investigations 2018, 22(8):2879-2887; Journal of Dentistry 2010, 38(10):828-837]. The evaluation was performed by one person, with a score of Grade 0 in cases where the tertiary dentin was formed in only one-third or less of the exposed pulp region, Grade 1 in cases where the tertiary dentin was formed in one-third to two-thirds of the exposed pulp region, Grade 2 in cases where the tertiary dentin was formed in two-thirds or more of the exposed pulp region, and Grade 3 in cases where the formed tertiary dentin was completely covering the exposed pulp region. In addition, the same micro-CT images were analyzed using the same way as described in the section 2) of “Materials and Methods” of the section 1 of the section I above to evaluate the volume of the formed tertiary dentin. HE staining was also performed using the same way as described in the section 3) of “Materials and Methods” of the section 1 of the section I above, and histopathological evaluation of the formation of the tertiary dentin was performed. The number of samples was 8 for each condition.
as §1

hDPSCs [3] = test: Proteome analysis (LC-MS/MS) of proteins expressed by hDPSCs; type: cell-based, human; details: 0.1 mM, 7 days
Experimental: The No. 28 peptide or the recombinant S100-A8, the protein from which the No. 28 peptide is derived, was applied to the hDPSCs to compare and quantify the proteins expressed by the hDPSCs by the LC-MS/MS. The hDPSCs were seeded in a 100 mm cell culture dish at 3,000,000 cells/plate in the mineralization induction medium containing each of the samples containing the No. 28 peptide or the S100-A8 at a concentration of 0.1 mM, and cultured at 37° C. in the 5% CO2 gas phase for 7 days. Then, plasma membrane and cytoplasmic proteins were extracted using a plasma membrane protein extraction kit (Cosmo Bio Co., Ltd., Tokyo). As a practical procedure, the hDPSCs were cultured for 7 days, collected with a scraper, added with Buffer A included in the kit, and left on ice for 10 minutes. The hDPSCs were then transferred into a microtube with a filter cartridge included in the kit and centrifuged at 14,000 rpm for 30 seconds. After discarding the cartridge and agitating for 10 seconds, the microtube was centrifuged at 3000 rpm for 1 minute and the supernatant was collected. The collected supernatant was then centrifuged at 14,000 rpm for 30 minutes to extract the cytoplasmic proteins separated in a supernatant and the plasma membrane proteins separated in pellet. As a control, the hDPSCs cultured in mineralization induction medium supplemented with the PBS were used.
Each sample was analyzed by liquid chromatography using UltiMate 3000 Nano LC systems (Thermo Fisher Scientific, USA) and ESI-column (0.075×150 mm) (Thermo Fisher Scientific). A 0.1% formic acid aqueous solution containing acetonitrile was used as a mobile phase at a flow rate of 300 nL/min. The concentration of acetonitrile was 5% for the first 5 min, increased to 40% in 95 min, then increased at a constant rate for 2 min to 90%, and maintained for 5 min. The peptides were analyzed using Q-Exactive (Thermo Fisher Scientific). Identification and quantitative analysis of the proteins were performed by peptide mass fingerprinting using Mascot Distiller v2.5, Mascot Server v2.5 (Matrix Science, USA), and UniProt on obtained MS/MS spectra.
In addition, to evaluate changes in expression levels of the proteins, the following criteria were used to narrow down the identified plasma membrane-derived and cytoplasm-derived proteins among the samples.
• Proteins whose measured values were higher in the S100-A8 group than in the control group • Proteins whose measured values in the peptide group are more than twice as high as those in the control group • Proteins whose measured values in both the peptide group and the S100-A8 group are equal to or greater than 1 (a.u.; arbitrary unit)
• Proteins whose measured values were lower in the S100-A8 group than in the control group • Proteins whose measured values in the control group are more than twice as high as those in the peptide group • Proteins whose measured values in the control group are equal to or greater than 1 (a.u.; arbitrary unit)
Each of the groups narrowed down by the above criteria was analyzed using Gene Ontology (GO) classification. The GO provides an internationally standardized GO Term, which is intended to describe biological functions. The GO Term is organized in a hierarchical structure, with the upper order representing general functions and the lower order representing more detailed functions. For example, there are three categories at the top: “Molecular function,” “Biological process,” and “Cellular component.”
The GO Term belonging to “Molecular function” and “Biological process” which represent their respective functions from the above classification were searched for the protein groups obtained in this experiment, and the functions characteristic to each protein group were examined.

exposed pulp = details: rat in vivo, reported in Non Patent Literature 1; cited from earlier work
pulp cells = details: reported in Non Patent Literature 1; cited from earlier work
[4] = mineralization induction medium, count for No. 28 peptide or S100-A8 jointly

KLLETECPQ [No. 28 peptide, Lys-Leu-Leu-Glu-Thr-Glu-Cys-Pro-Gln]
cytotoxicity, overall conclusion (hDPSCs [1]): comparable to that of the PBS | cytotoxicity compared to the control (LDH-assay) (hDPSCs [1]; all concentrations (0.1, 1, 10, 100 μg/ml)): significantly lower cytotoxicity

NADKQLSFE [No. 51 peptide, Asn-Ala-Asp-Lys-Gln-Leu-Ser-Phe-Glu]
cytotoxicity compared to the control (LDH-assay) (hDPSCs [1]; 10 μg/ml): significantly lower cytotoxicity | cytotoxicity compared to the control (LDH-assay) (hDPSCs [1]; 100 μg/ml): significantly lower cytotoxicity | cytotoxicity, overall conclusion (hDPSCs [1]): comparable to that of the PBS

NTDGAVNFQ [No. 32 peptide, Asn-Thr-Asp-Gly-Ala-Val-Asn-Phe-Gln]
cytotoxicity compared to the control (LDH-assay) (hDPSCs [1]; 1 μg/ml): significantly lower cytotoxicity | cytotoxicity, overall conclusion (hDPSCs [1]): comparable to that of the PBS

B1: S100-A9: recombinant of the protein from which the peptide was derived (PROSPEC); UniProtKB-P06702 (protein, UniProt P06702 1-114, looked up)
Protein S100-A9: MTCKMSQLERNIETIINTFHQYSVKLGHPDTLNQGEFKELVRKDLQNFLKKENKNEKVIEHIMEDLDTNADKQLSFEEFIMLMARLTWASHEKMHEGDEGPGHHHKPGLGEGTP
structure of the tertiary dentin compared to the samples treated with the peptides (HE staining) [2]: sparse structure | number of samples with tertiary dentin formation that completely sealed the exposed pulp region [2]: 2 samples | closure of the surface of the exposed pulp (HE staining) [2]: completely closed by the formed tertiary dentin

B2: S100-A8: recombinant of the protein from which the peptide was derived (PROSPEC); UniProtKB-P05109 (protein, UniProt P05109 1-93, looked up)
Protein S100-A8: MLTELEKALNSIIDVYHKYSLIKGNFHAVYRDDLKKLLETECPQYIRKKGADVWFKELDINTDGAVNFQEFLILVIKMGVAAHKKSHEESHKE
expression levels of proteins promoting MAPK signaling pathway (MAP2K1, CDH2, NRAS, MAP1, CRK, PSMB7) versus control (hDPSCs [3]; GO Term analysis): decreased | expression levels of proteins promoting NFκB signaling pathway (FLOT1, 3KCR1, LYRIC, GJA1, S100A-13, NOL3) versus control (hDPSCs [3]; GO Term analysis): more increased | cytoplasm-derived proteins whose expression levels were more decreased than in the control (hDPSCs [3]; [4]): 67 proteins | cytoplasm-derived proteins whose expression levels were more increased than in the control (hDPSCs [3]; [4]): 250 proteins | plasma membrane-derived proteins whose expression levels were more decreased than in the control (hDPSCs [3]; [4]): 97 proteins | plasma membrane-derived proteins whose expression levels were more increased than in the control (hDPSCs [3]; [4]): 158 proteins | structure of the tertiary dentin compared to the samples treated with the peptides (HE staining) [2]: sparse structure | number of samples with tertiary dentin formation that completely sealed the exposed pulp region [2]: 1 samples | closure of the surface of the exposed pulp (HE staining) [2]: completely closed by the formed tertiary dentin | tertiary dentin induction in the direct pulp capping experiment (exposed pulp): completely covers the surface of the exposed pulp | effect on pulp cells in vitro (pulp cells): activates proliferation, differentiation, and mineralization abilities
